Experimental data taken from PMC9588774 (Cell Death & Disease, 2022).

T1: CD95L (FasL, Peprotech) (UniProt P48023 130-281)
T1 chain: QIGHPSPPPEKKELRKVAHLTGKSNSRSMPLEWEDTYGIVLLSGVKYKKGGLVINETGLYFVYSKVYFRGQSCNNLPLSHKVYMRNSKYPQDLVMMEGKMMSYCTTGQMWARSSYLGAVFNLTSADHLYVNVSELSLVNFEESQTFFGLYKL

B1: soluble full-length extracellular domain of CD95 (sCD95) (domain or fragment)
chain: RLSSKSVNAQVTDINSKGLELRKTVTTVETQNLEGLHHDGQFCHKPCPPGERKARDCTVNGDEPDCVPCQEGKEYTDKAHFSSKCRRCRLCDEGHGLEVEINCTRTQNTKCRCKPNFFCNSTVCEHCDPCTKCEHGIIKECTLTSNTKCKEEGSRSNL
modifications: N-glycosylated
B2: soluble Δ58-truncated extracellular domain of CD95 (sCD95-Δ58) (domain or fragment)
chain: CHKPCPPGERKARDCTVNGDEPDCVPCQEGKEYTDKAHFSSKCRRCRLCDEGHGLEVEINCTRTQNTKCRCKPNFFCNSTVCEHCDPCTKCEHGIIKECTLTSNTKCKEEGSRSNL
B3: soluble extracellular domain of CD95 with K33G (sCD95-K33G) (domain or fragment, UniProt P25445 17-173, looked up)
chain: RLSSKSVNAQVTDINSGGLELRKTVTTVETQNLEGLHHDGQFCHKPCPPGERKARDCTVNGDEPDCVPCQEGKEYTDKAHFSSKCRRCRLCDEGHGLEVEINCTRTQNTKCRCKPNFFCNSTVCEHCDPCTKCEHGIIKECTLTSNTKCKEEGSRSN
notes: CD95 (Fas), a.a; 17-173 of the 335-residue precursor, AAG codon (K) replaced by GGG (G); pcDNA3.1(+); also called soluble K33G CD95 mutant; source: HEK/293T, transfected (calcium/phosphate), secreted into serum-deprived Opti-MEM; supernatant ultracentrifuged
B4: soluble Δ36-truncated extracellular domain of CD95 (sCD95-Δ36) (domain or fragment, UniProt P25445 37-173, looked up)
chain: LRKTVTTVETQNLEGLHHDGQFCHKPCPPGERKARDCTVNGDEPDCVPCQEGKEYTDKAHFSSKCRRCRLCDEGHGLEVEINCTRTQNTKCRCKPNFFCNSTVCEHCDPCTKCEHGIIKECTLTSNTKCKEEGSRSN
notes: CD95 (Fas), a.a; 37-173 of the 335-residue precursor; pcDNA3.1(+); also called Δ36-CD95; MMP7-cleaved form; source: HEK/293T, transfected (calcium/phosphate), secreted into serum-deprived Opti-MEM; supernatant ultracentrifuged

Tests used:
CD95L (FasL, Peprotech) [1] = target: CD95L (FasL, Peprotech) (UniProt P48023); experiment: SPR; Biacore T200, 25 °C; CM5 chip coated with 140 RU of FasL (Peprotech); sCD95 or sCD95-Δ58 injected in triplicate at 25 µl/min in 10 mM Na2HPO4, 150 mM NaCl, 3 mM EDTA, 0.05% Tween-20, pH 7.4; Langmuir 1:1 fit, KD = kd/ka
CD95L (FasL, Peprotech) [2] = target: T1, CD95L (FasL, Peprotech); experiment: SPR
[3] = target: soluble full-length extracellular domain of CD95 (sCD95); experiment: SEC; supernatants of sCD95-secreting HEK/293T cells on Superdex 200 Prep Grade (XK 16/70) in PBS, 1 mL/min, 1 mL fractions; CD95 in each fraction dosed by ELISA; native molecular markers
[4] = target: the molecule itself; experiment: as above

| Binder | Kd (CD95L (FasL, Peprotech) [1]) [nM] | koff (CD95L (FasL, Peprotech) [2]) [s⁻¹] | percent of homotrimer [3] [%] | percent of monomer [3] [%] | percent of the protein in the dimer fractions [3] [%] | stoichiometry N [3] | stoichiometry N [4] |
| --- | --- | --- | --- | --- | --- | --- | --- |
| B1 | 2 | 0.0011 | 27 | 20 | 44 | 2 |  |
| B2 | 2.5 | 0.0011 |  |  |  |  |  |
| B3 |  |  |  |  |  |  | 3 |
| B4 |  |  |  |  |  |  | 2 |
